Experimental data published in paper PMC5553161.

Target: VAP-B (human (endogenous in Huh7)) (UniProt O95292)
Assay: co-IP; lysates of Huh7 cells stably harboring wild-type, S225D or S225A SGRs immunoprecipitated with antibodies to NAP1L1, Bin1, VAP-A or VAP-B; Western blot for NS5A, quantified (n = 3)

UniProt O95292, sequence (O95292 whole entry): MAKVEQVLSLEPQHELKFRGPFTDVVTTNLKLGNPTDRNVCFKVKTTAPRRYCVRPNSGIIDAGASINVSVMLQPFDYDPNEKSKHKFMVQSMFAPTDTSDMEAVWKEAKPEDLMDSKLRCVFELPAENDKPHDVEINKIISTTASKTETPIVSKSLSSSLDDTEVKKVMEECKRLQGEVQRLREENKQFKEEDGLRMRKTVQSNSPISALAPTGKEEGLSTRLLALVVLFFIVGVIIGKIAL

One-Strep-tagged (OST) NS5A S225A of hepatitis C virus JFH-1 (genotype 2a) (natural protein)
reduction in the level bound, against wild type: 50%
